This test has as its target T1, IL-3 receptors on human basophils, pDC, monocytes and B cells (PBMC) (human, UniProt P26951 19-378; P32927 17-897).
T1 construct: whole, on cells; Natural receptor on primary human blood cells; the cells were sorted by CD123 and HLA-DR staining; also called CD123
The test can be described thus: flow cytometry, biotinylated hIL-3 on human PBMC, avidin-FITC. On the procedure: Binding of IL-3 to human peripheral blood mononuclear cells (PBMC) was analysed using commerically available biotinylated IL-3. For the assay, biotinylated IL-3 was incubated with PBMC and binding detected via Avidin-Fluorescein (biotinylated hIL-3 and other reagents obtained from R&D Systems, Inc., Cat. No. NF300).
10 μl of the isolated and incubated PBMC cell preparation (10 Mio. cells/ml) were added to each of the preincubated IL-3/antibody or negative control samples and further incubated for 1 hour at 4° C. For the detection of IL-3 bound to PBMC, 10 μl avidin-FITC reagent together with anti-human CD123 PE-Cy5 (1:10) and anti-HLA-DR II APC (1:50) were added and the samples incubated for a further 30 min at 4° C. Cells were washed twice with 2 ml 1×RDF1 buffer and resuspended in 200 μl of this buffer per sample and FACS analysis performed. Basophils were identified by high expression of CD123 and absence of HLA-DR. Plasmacytoid dendritic cells (pDC) were identified by high expression of CD123 and HLA-DR. Monocytes and B cells were identified by light scatter properties and expression of HLA-DR.

We go through 1 molecule from patent US20150175693A1 (UNIVERSIT TSKLINIKUM REGENSBURG, published 2015).

T1 sequence (P26951 19-378, chain 1 of 2): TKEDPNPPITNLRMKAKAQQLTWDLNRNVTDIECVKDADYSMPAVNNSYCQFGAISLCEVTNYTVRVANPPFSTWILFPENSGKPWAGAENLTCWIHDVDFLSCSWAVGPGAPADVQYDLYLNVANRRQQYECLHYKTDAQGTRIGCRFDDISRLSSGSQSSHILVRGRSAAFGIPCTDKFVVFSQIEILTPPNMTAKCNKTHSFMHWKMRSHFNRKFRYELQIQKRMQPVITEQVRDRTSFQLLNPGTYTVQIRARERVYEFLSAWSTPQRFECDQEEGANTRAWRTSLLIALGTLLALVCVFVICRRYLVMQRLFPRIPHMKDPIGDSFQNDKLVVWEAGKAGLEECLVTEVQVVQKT
T1 sequence (P32927 17-897, chain 2 of 2): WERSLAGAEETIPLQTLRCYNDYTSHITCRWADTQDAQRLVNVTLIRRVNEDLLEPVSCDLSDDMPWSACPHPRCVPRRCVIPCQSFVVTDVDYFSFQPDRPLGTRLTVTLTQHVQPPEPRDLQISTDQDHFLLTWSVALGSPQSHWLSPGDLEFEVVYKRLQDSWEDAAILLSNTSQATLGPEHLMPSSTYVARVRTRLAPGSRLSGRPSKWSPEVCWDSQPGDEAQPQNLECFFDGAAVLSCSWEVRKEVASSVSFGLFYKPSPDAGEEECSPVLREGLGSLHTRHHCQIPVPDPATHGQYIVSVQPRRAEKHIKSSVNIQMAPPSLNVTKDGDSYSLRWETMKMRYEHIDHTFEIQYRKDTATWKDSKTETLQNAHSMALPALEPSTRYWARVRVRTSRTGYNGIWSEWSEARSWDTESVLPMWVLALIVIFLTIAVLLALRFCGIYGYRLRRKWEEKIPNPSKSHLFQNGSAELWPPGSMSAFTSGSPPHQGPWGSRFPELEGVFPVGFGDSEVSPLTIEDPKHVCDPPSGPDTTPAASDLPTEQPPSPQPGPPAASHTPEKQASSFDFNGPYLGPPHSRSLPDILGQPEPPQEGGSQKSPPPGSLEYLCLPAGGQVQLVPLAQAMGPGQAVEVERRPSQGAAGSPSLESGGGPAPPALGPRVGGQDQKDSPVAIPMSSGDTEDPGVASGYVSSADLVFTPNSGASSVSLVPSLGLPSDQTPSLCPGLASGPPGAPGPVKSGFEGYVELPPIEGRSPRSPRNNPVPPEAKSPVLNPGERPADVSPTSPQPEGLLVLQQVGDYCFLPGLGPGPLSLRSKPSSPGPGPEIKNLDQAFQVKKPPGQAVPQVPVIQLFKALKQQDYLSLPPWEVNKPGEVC

B1: biotinylated hIL-3 (R&D Systems, Cat. No. NF300) (ligand)
chain: APMTQTTPLKTSWVNCSNMIDEIITHLKQPPLPLLDFNNLNGEDQDILMENNLRRPNLEAFNRAVKSLQNASAIESILKNLLPCLPLATAAPTRHPIHIKDGDWNEFRRKLTFYLKTLENAQAQQTTLSLAIF
modifications: biotinylated (sites not given)
notes: Bought reagent; also called biotinylated IL-3
As for B1, the binding result is reported as “binds”.
